# Assay: yeast display, Sf9 membrane polyspecificity reagent, FACS + sequencing; frameworks hold sequencing errors
# Summary of the method: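 Genes from sorted yeast were amplified by colony PCR, read by MiSeq 2 × 250 sequencing and filtered on CDR length. These cells carried a synthetic nanobody library in Saccharomyces cerevisiae BJ5465 and were sorted by FACS into low and high (top ~1%) gates on anti-HA and streptavidin fluorescence. Polyreactivity is labelled according to the gate of origin.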
row,Sequence,polyreactivity (PSR sort gate)
1,QVQLVESGGGLVQAGGSLRLSCAASGRILRTYAMGWYIQAPGKERELVAAISRSGGSTYYADSVKGRFTLSRDNAKNTVAVQMTSLKPEDTAVYYCHKAYGGRGSKDEYWGQGTQVTVSS,high polyreactivity
2,QVQLVESGGGLVQAGGSLRLSCAASGRILRYYAMGWYRQAPGKERELVAVITSSDGSTYYADSVKGRFTISRDNAKNTVYLQMNSLKPEDTAVYYCAADYHWYRRPGYNYWGQGTQVTVSS,low polyreactivity
3,QVQLVESGGGLVQAGGSLRLSCAASGRILSPYAMGWYRQAPGKERELVAAITSGGRTHYADSVKGRFTISRDNAKNTVYLQMNSLKRVDTAVYYCAARVRSGWWVRDDYWGQGTQVTVSS,high polyreactivity
4,QVQLVESGGGLVQAGGSLRLSCAASGRILSSYAMGWNRQAPGKERELVAVISSGGNTYYADSVKGRFTISRDNAKNTVFLQMNSLKPEDTAVYYCNAARRGYLRRYYWGQGTQVNVSS,high polyreactivity
5,QVQLVESGGGLVQAGGSLRLSCAASGRILTFNTMGWYRQAPGKERELVAAIRSGGSTYYADSVKGRFTISRDNAKNTVFLQMNSLKPEDTAVYYCRGMGYWGQGTQVTVSS,high polyreactivity
6,QVQLVESGGGLVQAGGSLRLSCAASGRILTSNAMGWYRQAPGKERELVAAISWSGGSTYYADSVKGSFTISRDNAKNTVYLQMNSLKPDDSAVYYCAAPFTTTFDYSGQGTQVTVSS,low polyreactivity
7,QVQLVESGGGLVQAGGSLRLSCAASGRILTYYVMGWYRQAPGKERELVAAITDSGGITYADSVKGRFTISRDNAKNTVYLQMNSLKPEDTAVYYCAAVRFFLYYFDFSAYDYWGQGTQVTVSS,low polyreactivity
8,QVQLVESGGGLVQAGGSLRLSCAASGRILVGYAMGRYRQAPGKERELVAAINRSGSSTYYADSVKGRFTISRDNAKNTVYLQRNSLNPEDTAVYYCNAPSGNRYGPRYDYWGQGTQVTVSS,high polyreactivity
9,QVQLVESGGGLVQAGGSLRLSCAASGRILVPYAMGWYRQAPGKERELVAAINPRGGRTYYADSVKGRFTISRDNAKYTVYLQMNSLKPEDTAVYYCNALAHQYHRYEFGYWGQGTQVTVSS,low polyreactivity
10,QVQLVESGGGLVQAGGSLRLSCAASGRILVWYAMAWYRQAPGKERELVASISSTGGSTYYADSVKGRFTISRDNAKNTVYLQMNSLKPEDTAVYYCAAVIRSQDGRGYDYWGQGTQVTVSS,high polyreactivity
11,QVQLVESGGGLVQAGGSLRLSCAASGRILWFYAMGWYRQAPGKERELVAAISWNGGSTYYADSVKGRFTISRDNAKNTVYLQMNSLKPEDTAVYYCAARPFHIHLSLEYNYWGQGTQVTVSS,low polyreactivity
12,QVQLVESGGGLVQAGGSLRLSCAASGRILWGYAMGWYRQATGKERELVATITRGGSTNYADSVKGRFTISRDNAKNTFYLKMNRVKPEDTAFYDCAAGELYIVNYTYYFEMDYWGEGTQVTVSS,high polyreactivity
13,QVQLVESGGGLVQAGGSLRLSCAASGRILWQYAMGWYRPAPGKERELVAAITSSGADTYYADSVKGRFTISRDNAKNTVYLQMNSLKPEDTAVYYCNADASAVVYKFGFGYWGQGTQVTVSS,low polyreactivity
14,QVQLVESGGGLVQAGGSLRLSCAASGRILWSYAMGWYRQAPGKERELVAAITSGTRTNYADSVKGRFTISRDNAKNTVYLQMNSLKPEDTAVYYCAADRYWPAFYRTRGWDYYYWGQGTQVTVSS,high polyreactivity
15,QVQLVESGGGLVQAGGSLRLSCAASGRILYCYTMGWYRQAPGKERELVAGITTRGGNTYYADSVKGRFTISRDNAKNSVYLQMNSLKPEDTAVYYCAARFSGPARMDYWGQGTQVTVSS,low polyreactivity
16,QVQLVESGGGLVQAGGSLRLSCAASGRILYGNVMGWYRQAPGKERELVAAIDSSGATTYYADSVKGRITISRDNAKNTVYLQMNSLKPDDTAVYYCAAEVTSFSFGGDATEYYWGQGTQVTVSS,low polyreactivity
17,QVQLVESGGGLVQAGGSLRLSCAASGRILYGYALGWYRQAPGKERELVAAISWSGTRTYDADSVQGRFTISRDNAKNTVYLQMNSLKPEDTAVYYCAARTHVPAEYDYWGQGTQVTVSS,high polyreactivity
18,QVQLVESGGGLVQAGGSLRLSCAASGRILYIYAMGWYRQAPGKERELVAAIRSSGGSTYYADSVKGRFTISRDNAKNTVYFQMNSLKPEDTAVYYCAAPDFPKYYPTAYLQADEYWGQGTQVTVSS,high polyreactivity
19,QVQLVESGGGLVQAGGSLRLSCAASGRILYKYSMGWYRQAPGKERELVAAINRSGGRTYYADSVKGRFTISRDNAKNTVYIQMNSLKPEDTAVYYCAARNPTSYGQFDYLGQGTQVTVSS,high polyreactivity
20,QVQLVESGGGLVQAGGSLRLSCAASGRILYPYAMGWYRQAPGKERESVAAITFRGGNTYYADSVKGRFTISRDQAKNTVYLQMNSLKPEDTAVYYCAAPQRWTYAYDYWGQGTQVTVSS,high polyreactivity
21,QVQLVESGGGLVQAGGSLRLSCAASGRILYWYAMGWYRQAPGKERELVAGIDWSGGSTYYADSVKGRFTISRDNAKNTVYLQMNSLKPEDTAVNYCNAVQNRGRGSHRGESTYYYWGQGTQVTVSS,low polyreactivity
22,QVQLVESGGGLVQAGGSLRLSCAASGRISAYNAMGWYRQAPGKERELVAGISTRTGSTYYADSVKGRFTISRDNAKNTVYLQMNSLKPEDTAVYYCAAYFWGVYFFGMDYWGQGTQVTVSS,low polyreactivity

row,Sequence,polyreactivity (PSR sort gate)
1,QVQLVESGGGLVQAGGSLRLSCAASGRISESNDMGWYRPAPGKERELVAAISSSGGSTYYADSVKGRFTISRDNAKNTVYLQMNSLKPEDTAVDYCNAVYYRTVLKIGVYEYDYWGQGTQVTVSS,low polyreactivity
2,QVQLVESGGGLVQAGGSLRLSCAASGRISESNDMGWYRQAPGKERELVAAISSSGGSTYYADSVKGRFTISRDNAKNTVYLQMNSLKPEDTAVYYCAAQTGYSYGITWQFTKYNYWGQGTQVTVSS,low polyreactivity
3,QVQLVESGGGLVQAGGSLRLSCAASGRISFRYAMGWYRPAPGKERELVAAINRGGITNYADSVKGRFTISRDNAKNTVYLQMNSLKPEDTAVYYCAARWRGSGGFDYWGQGTQVTVSS,high polyreactivity
4,QVQLVESGGGLVQAGGSLRLSCAASGRISFRYAMGWYRQAPGKERELVAAINRGGITNYADSVKGRFTISRDNAKNTVYLQMNSLKPEDTAVYYCAARYASPRYKSKIAYWGQGTQVSVSS,high polyreactivity
5,QVQLVESGGGLVQAGGSLRLSCAASGRISFYYAMGWYRQAPGKERELVATISSSGGSTHYADSVKGRFTISRDNAKNTVYLQMNSLKPEDTAVYYCARDDSDRIWLEQSGYWGQGTQVTVSS,low polyreactivity
6,QVQLVESGGGLVQAGGSLRLSCAASGRISGGYDMGWYRQAPGKERELVAAITNTGGITYYADSVKGRFTISRDNAKNTVYLQMNSLKPEDTAVYYCNAEYEISFYVLFDYWGQGTQVTVSS,low polyreactivity
7,QVQLVESGGGLVQAGGSLRLSCAASGRISHYNAMGWYRQAPGKERELVAAISSRGGSTYYADSVKGRFTISRDNAKNTVYLQMNSLKPEDTAVYYCADTAGYWGQGTQVTVSS,high polyreactivity
8,QVQLVESGGGLVQAGGSLRLSCAASGRISIKNAMGWYRQAPGKERELVAAIRWSADSTYYADSVKGRFTISRDNAKNTVYLQMNSLIPEDTAVYYCAATGRLRYYWGQGTQVTVSS,high polyreactivity
9,QVQLVESGGGLVQAGGSLRLSCAASGRISKGYAMGWYRQAPGKERELVAAISWRTSSTYYADSVKGRFTISRDNAKNTVYLQMNSLKPEVTAVYYCAAETWLGSWRQVGMDYWGQGTQVTVSS,high polyreactivity
10,QVQLVESGGGLVQAGGSLRLSCAASGRISKYNAMGWYRQAPGKERELVAAINQRGTSTYYADSVKGRFTISRDNEMNTVYLQMNSLKPEDTAVYYCATTGYRFYLMDYWGQGTQVTVSS,low polyreactivity
11,QVQLVESGGGLVQAGGSLRLSCAASGRISLFNAMGWYRQAPGKERELVAAITYTGGSTYYADSVKGRFTISRDNAKNTVYLQMNSLKPVDTAVYYCAADPWTAKDDSWGQGTQVTVSS,high polyreactivity
12,QVQLVESGGGLVQAGGSLRLSCAASGRISLYYTMGWYRQAPGKEREFVAAISSTGGSTYYADSVKGRFTISRDNAKNTVYLQMNSLKPEDTAVYYCAKAYHATSDYWGQGTQVTVSS,low polyreactivity
13,QVQLVESGGGLVQAGGSLRLSCAASGRISPKNAMGWYRQAPGKERELVATIRKIGGRTYYADSVKGRFTISRDNAKYTVYLQMNSLKPEDTAVYYCATDFAPSYYPDRFDYWGQGTQVTVSS,low polyreactivity
14,QVQLVESGGGLVQAGGSLRLSCAASGRISQGYAMGWYRQAPGKERELVAVISRSGGSTYYADSVKGRFTISRDNAKNTVYLQMNSVKPEDTAVYYCASRYYWRGYYWGQGTQVTVSS,high polyreactivity
15,QVQLVESGGGLVQAGGSLRLSCAASGRISQIYARGWYRQAPGKERELVASISSSGSRTYYADSVKGRFTISRDHAKNTVYLQMNSLKPEDTAVYYCAATYLKVHGEYDYWGQGTQVTVSS,high polyreactivity
16,QVQLVESGGGLVQAGGSLRLSCAASGRISRGYAMGWYRQAPGKERELVAAIDSDGDTNYADSVKGRFTISRDNAKNTVYLQMNSLKPEDTAVYYCNKDGAYKTAYKRWTLYDYWGQGTQVTVSS,low polyreactivity
17,QVQLVESGGGLVQAGGSLRLSCAASGRISSLYAMGWYRQAPGKERELVAAISGTGGSAYYADSVKGRFTISRDNAKNTVYLQLNSLKPEDTAVYYCNAVRRWRTSQFDYWGQGTQVTVSS,low polyreactivity
18,QVQLVESGGGLVQAGGSLRLSCAASGRISTRYTMGWYRQAPRKERELVAAISGNAGRTYYADSVKGRFTISRDNAKNTVYLEMNSLKPADTAVYYCARESGYRAYEIQFYYWGQGTQVTVSS,high polyreactivity
19,QVQLVESGGGLVQAGGSLRLSCAASGRISVFNAMGWYRQAPGKERELVAAITSGGSTNYADSVKGRFTISRDNAKNTVYLQMNSLKPEDTAVYYSNADVYHSHEPHYDYWGQGTQVTVSS,low polyreactivity
20,QVQLVESGGGLVQAGGSLRLSCAASGRISVRIYAMGWYRQAPGKERELVAIISRSGGSTYYADSVKGRFTISRDNAKNTVYLQMNSLKPEDTEVYYCNARWSFSYTVWVDSYWCLDDYWGQGTQVTVSS,high polyreactivity
21,QVQLVESGGGLVQAGGSLRLSCAASGRISYANAMGWYRQAPGKERELVASITYSAGSTYADSVKGRFTISRDNAKYTVYLQMNSLKPEDSAVYYCNAYHVIYARESDYWGQCTQVTVSS,low polyreactivity
